Source: patent US20130266958A1 (INTERNATIONAL INSTITUTE OF CANCER IMMUNOLOGY, published 2013)

What was measured:
Test in all cases: HPLC folding test (Superdex 200), HLA class II monomer protein with 50-fold molar peptide, against solvent only
[1] = biological target: T1, HLA class II monomer protein DRB1* 1501 (human)
T1 construct: Soluble MHC class II monomer protein used in the HPLC folding test; also called HLA-DRB1* 1501 molecule
Method: (§1) After reacting the solution at 37° C., the retention time was analyzed using HPLC.
(§2) As a folding buffer, a 10% amount of a mixed solution of an HLA class II monomer protein and a peptide was added. The amount of the folding buffer added was calculated using the following calculation equation.
(§3) To a glass vial charged with an HLA class II monomer protein, a peptide solution and a folding buffer were added in a calculated amount, and the mixture was allowed to stand at 37° C. overnight. HPLC (Waters 2695 Separation Module) was started, and a Seperdex 200 column was equilibrated with an equilibrating buffer. To all samples, 300 μL of the equilibrate buffer was added and well mixed, and a 100 μL portion of the mixture was used as a sample injection volume to calculate the retention time. Analysis time was 50 minutes. The criterion for the folding of an HLA class II monomer protein with a peptide is a shift of the retention time of not less than 0.1 minute as compared with a control (solvent only).

[2] = biological target: T2, HLA class II monomer protein DRB1* 0101 (human)
T2 construct: Soluble MHC class II monomer protein used in the HPLC folding test
Method: as §1, §2, §3

[3] = biological target: T3, HLA class II monomer protein DRB1* 0405 (human)
T3 construct: Soluble MHC class II monomer protein used in the HPLC folding test
Method: as §1, §2, §3

[4] = biological target: T4, HLA class II monomer protein DRB1* 0803 (human)
T4 construct: Soluble MHC class II monomer protein used in the HPLC folding test; also called HLA-DRB1* 0803 molecule
Method: as §1, §2, §3

[5] = biological target: T5, HLA class II monomer protein DRB1* 0901 (human)
T5 construct: Soluble MHC class II monomer protein used in the HPLC folding test; also called HLA-DRB1* 0901 molecule
Method: as §1, §2, §3

[6] = biological target: T6, HLA class II monomer protein DRB1* 1502 (human)
T6 construct: Soluble MHC class II monomer protein used in the HPLC folding test; also called HLA-DRB1* 1502 molecule
Method: as §1, §2, §3

[7] = biological target: T7, HLA class II monomer protein DRB4* 0101 (human)
T7 construct: Soluble MHC class II monomer protein used in the HPLC folding test
Method: as §1, §2, §3

Measured: degree of shift of the retention time

B1: WT1-332 (a peptide consisting of the amino acid sequence depicted in SEQ ID NO:2) (peptide)
peptide: KRYFKLSHLQMHSRKH
notes: Synthetic peptide; part of human WT1 protein; also called WT1 peptide
≥ 0.1 min: [1] | [2] | [3] | [4] | [5] | [6] | [7]
